# In US20180155451A1 (published 2018):
# T1: FcγRIIb extracellular domain with C-terminal His tag (human, UniProt P31994 43-217)
# T1 construct: extracellular domain; also called FcgRIIb; 2b; not shown: His tag at the C terminus
# T1 sequence (looked up): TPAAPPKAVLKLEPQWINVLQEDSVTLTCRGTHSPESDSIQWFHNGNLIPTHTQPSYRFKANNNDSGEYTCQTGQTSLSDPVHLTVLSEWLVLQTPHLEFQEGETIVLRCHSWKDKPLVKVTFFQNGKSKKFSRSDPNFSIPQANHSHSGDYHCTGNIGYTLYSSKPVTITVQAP
# B1: GpH7-A5/GpH7-B3 variant S324_01G/GpL16-k0 (antibody, human IgG1, kappa)
# heavy 1: not shown
# heavy 2: not shown
# light: DIVMTQSPLSLPVTPGEPASISCQASESLVHSNRNTYLHWYLQKPGQSPQLLIYKVSNRFSGVPDRFSGSGSGTDFTLKISRVEAEDVGVYYCSQNTHVPPTFGQGTKVEIERTVAAPSVFIFPPSDEQLKSGTASVVCLLNNFYPREAKVQWKVDNALQSGNSQESVTEQDSKDSTYSLSSTLTLSKADYEKHKVYACEVTHQGLSSPVTKSFNRGEC
# notes: position is EU numbering; also called He Ab
# B2: GpH7-A5/GpH7-B3 variant Q295_16H/GpL16-k0 (antibody, human IgG1, kappa)
# heavy 1: not shown
# heavy 2: not shown
# light: B1 light
# notes: as for B1
# B3: GpH7-A5/GpH7-B3 variant Y296_20W/GpL16-k0 (antibody, human IgG1, kappa)
# heavy 1: not shown
# heavy 2: not shown
# light: B1 light
# notes: as for B1
# B4: GpH7-A5/GpH7-B3 variant S298_09D/GpL16-k0 (antibody, human IgG1, kappa)
# heavy 1: not shown
# heavy 2: not shown
# light: B1 light
# notes: as for B1
# B5: GpH7-A5/GpH7-B3 variant S298_04F/GpL16-k0 (antibody, human IgG1, kappa)
# heavy 1: not shown
# heavy 2: not shown
# light: B1 light
# notes: as for B1
# B6: GpH7-A5/GpH7-B3 variant S298_14T/GpL16-k0 (antibody, human IgG1, kappa)
# heavy 1: not shown
# heavy 2: not shown
# light: B1 light
# notes: as for B1
# B7: GpH7-A5/GpH7-B3 variant S298_15Y/GpL16-k0 (antibody, human IgG1, kappa)
# heavy 1: not shown
# heavy 2: not shown
# light: B1 light
# notes: as for B1
# B8: GpH7-A5/GpH7-B3 variant S324_16H/GpL16-k0 (antibody, human IgG1, kappa)
# heavy 1: not shown
# heavy 2: not shown
# light: B1 light
# notes: as for B1
# B9: GpH7-A5/GpH7-B3 variant S324_11K/GpL16-k0 (antibody, human IgG1, kappa)
# heavy 1: not shown
# heavy 2: not shown
# light: B1 light
# notes: as for B1
# B10: GpH7-A5/GpH7-B3 variant Y300_14T/GpL16-k0 (antibody, human IgG1, kappa)
# heavy 1: not shown
# heavy 2: not shown
# light: B1 light
# notes: as for B1
# B11: GpH7-A5/GpH7-B3 variant Q295_18N/GpL16-k0 (antibody, human IgG1, kappa)
# heavy 1: not shown
# heavy 2: not shown
# light: B1 light
# notes: as for B1
# B12: GpH7-A5/GpH7-B3 variant S324_12R/GpL16-k0 (antibody, human IgG1, kappa)
# heavy 1: not shown
# heavy 2: not shown
# light: B1 light
# notes: as for B1
# B13: GpH7-A5/GpH7-B3 variant Y300_08L/GpL16-k0 (antibody, human IgG1, kappa)
# heavy 1: not shown
# heavy 2: not shown
# light: B1 light
# notes: as for B1
# B14: GpH7-A5/GpH7-B3 variant S324_10E/GpL16-k0 (antibody, human IgG1, kappa)
# heavy 1: not shown
# heavy 2: not shown
# light: B1 light
# notes: as for B1
# B15: GpH7-A5/GpH7-B3 variant S298_03V/GpL16-k0 (antibody, human IgG1, kappa)
# heavy 1: not shown
# heavy 2: not shown
# light: B1 light
# notes: as for B1
# B16: GpH7-A5/GpH7-B3 variant Y300_07I/GpL16-k0 (antibody, human IgG1, kappa)
# heavy 1: not shown
# heavy 2: not shown
# light: B1 light
# notes: as for B1
# B17: GpH7-A5/GpH7-B3 variant S324_02A/GpL16-k0 (antibody, human IgG1, kappa)
# heavy 1: not shown
# heavy 2: not shown
# light: B1 light
# notes: as for B1
# Target: T2, FcγRIIIa extracellular domain with C-terminal His tag (human, UniProt P08637 17-208)
# T2 construct: extracellular domain; also called FcgRIIIa; 3a; not shown: His tag at the C terminus
# Experiment: SPR (Biacore); ratio of He/Con_3a (FcγRIIIa) to He/Con_2b (FcγRIIb)
# Outline: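 Measurements were made at 25 °C with HBS-EP+ as running buffer. Each antibody sat on a chip bearing its antigen peptide, amine-coupled or streptavidin-bound, while FcγR was passed over; 10 mM glycine-HCl, pH 1.5 removed captured antibody.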
# T2 sequence (P08637 17-208): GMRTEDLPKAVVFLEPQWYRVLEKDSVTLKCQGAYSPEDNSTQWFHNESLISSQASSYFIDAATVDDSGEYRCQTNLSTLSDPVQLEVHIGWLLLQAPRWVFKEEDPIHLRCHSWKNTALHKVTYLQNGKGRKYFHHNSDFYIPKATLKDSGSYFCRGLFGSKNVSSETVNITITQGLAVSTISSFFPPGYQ
row,Binder,He_3a/2b (IIIa/IIb) [ratio]
1,B1,1.29
2,B2,1.22
3,B3,1.31
4,B4,1.38
5,B5,1.26
6,B6,1.45
7,B7,1.39
8,B8,1.24
9,B9,1.21
10,B10,1.53
11,B11,1.26
12,B12,1.43
13,B13,1.43
14,B14,1.28
15,B15,1.69
16,B16,1.28
17,B17,1.33

# Target: T2, FcγRIIIa extracellular domain with …
# Experiment: SPR (Biacore), antibody captured, FcγR as analyte; He Ab binding / GpH7-A5/GpH7-B3/GpL16-k0 binding x 100
row,Binder,He/Con_3a (IIIa binding)
1,B1,"105 relative, control = 100"
2,B2,"76.4 relative, control = 100"
3,B3,"135 relative, control = 100"
4,B4,"66.7 relative, control = 100"
5,B5,"82.5 relative, control = 100"
6,B6,"113 relative, control = 100"
7,B7,"85.6 relative, control = 100"
8,B8,"104 relative, control = 100"
9,B9,"83 relative, control = 100"
10,B10,"85.4 relative, control = 100"
11,B11,"81.6 relative, control = 100"
12,B12,"90.3 relative, control = 100"
13,B13,"105 relative, control = 100"
14,B14,"99.3 relative, control = 100"
15,B15,"109 relative, control = 100"
16,B16,"95.1 relative, control = 100"
17,B17,"104 relative, control = 100"

# Target: T1, FcγRIIb extracellular domain with …
# Experiment: as above
row,Binder,He/Con_2b (IIb binding)
1,B1,"81.1 relative, control = 100"
2,B2,"62.7 relative, control = 100"
3,B3,"103 relative, control = 100"
4,B4,"48.3 relative, control = 100"
5,B5,"65.4 relative, control = 100"
6,B6,"77.9 relative, control = 100"
7,B7,"61.4 relative, control = 100"
8,B8,"83.5 relative, control = 100"
9,B9,"68.6 relative, control = 100"
10,B10,"55.6 relative, control = 100"
11,B11,"64.9 relative, control = 100"
12,B12,"63.1 relative, control = 100"
13,B13,"73.6 relative, control = 100"
14,B14,"77.4 relative, control = 100"
15,B15,"64.5 relative, control = 100"
16,B16,"74.5 relative, control = 100"
17,B17,"78.3 relative, control = 100"
